Measurements taken from article PMC9645763.

Assays:
[1] = test system: PRC2-5m SUZ12 S583A (HEK293T) (human); assay: EMSA; settings: EMSA: 0.5 nM nucleosome, PRC2-5m 2-fold dilutions from 2 uM, 10 mM Tris 8.0, 50 mM NaCl, 10% glycerol, on ice 30 min; 4% native gel, 1x TGE, SYBR Gold
[2] = target: mononucleosome (Xenopus laevis histone octamer on 147-bp 601 DNA) (Xenopus laevis); assay: native gel or EMSA; 0.5 nM nucleosomes with PRC2-5m (2-fold serial dilution from 2 μM), 10 mM Tris 8.0, 50 mM NaCl, 10% glycerol, on ice 30 min; 4% native polyacrylamide gel, SYBR Gold

## 601 mononucleosome, 147 bp
[1]
  binding signal (fold higher Kd than WT): 2

## PRC2-5m (EZH2–EED–SUZ12–RBBP4–AEBP2) containing the S583A mutation of SUZ12, expressed in HEK293T cells (from UniProt Q15910 1-746; O75530 1-441; Q15022 1-739; Q09028 1-425; Q6ZN18 1-295) (complex)
[2]
  fold reduction of the nucleosome binding affinity against the WT complex: 2 fold
